{"source": "paper PMC6080931", "about": "(The Journal of Cell Biology, 2018)", "molecules": {"B1": {"name": "Atg18-TAP (overproduced, of the purified Atg2–Atg18 complexes) (natural protein, S. cerevisiae, UniProt P43601 1-500, looked up)", "chain": "MSDSSPTINFINFNQTGTCISLGTSKGFKIFNCEPFGKFYSEDSGGYAIVEMLFSTSLLALVGIGDQPALSPRRLRIINTKKHSIICEVTFPTSILSVKMNKSRLVVLLQEQIYIYDINTMRLLHTIETNPNPRGLMAMSPSVANSYLVYPSPPKVINSEIKAHATTNNITLSVGGNTETSFKRDQQDAGHSDISDLDQYSSFTKRDDADPTSSNGGNSSIIKNGDVIVFNLETLQPTMVIEAHKGEIAAMAISFDGTLMATASDKGTIIRVFDIETGDKIYQFRRGTYATRIYSISFSEDSQYLAVTGSSKTVHIFKLGHSMSNNKLDSDDSNMEEAAADDSSLDTTSIDALSDEENPTRLAREPYVDASRKTMGRMIRYSSQKLSRRAARTLGQIFPIKVTSLLESSRHFASLKLPVETNSHVMTISSIGSPIDIDTSEYPELFETGNSASTESYHEPVMKMVPIRVVSSDGYLYNFVMDPERGGDCLILSQYSILMD"}}, "key": {"[1]": {"target": "Atg2 (untagged, overproduced, of the purified Atg2–Atg18 complexes) (S. cerevisiae) (UniProt P53855)", "sequence (P53855 whole entry, one chain of several)": "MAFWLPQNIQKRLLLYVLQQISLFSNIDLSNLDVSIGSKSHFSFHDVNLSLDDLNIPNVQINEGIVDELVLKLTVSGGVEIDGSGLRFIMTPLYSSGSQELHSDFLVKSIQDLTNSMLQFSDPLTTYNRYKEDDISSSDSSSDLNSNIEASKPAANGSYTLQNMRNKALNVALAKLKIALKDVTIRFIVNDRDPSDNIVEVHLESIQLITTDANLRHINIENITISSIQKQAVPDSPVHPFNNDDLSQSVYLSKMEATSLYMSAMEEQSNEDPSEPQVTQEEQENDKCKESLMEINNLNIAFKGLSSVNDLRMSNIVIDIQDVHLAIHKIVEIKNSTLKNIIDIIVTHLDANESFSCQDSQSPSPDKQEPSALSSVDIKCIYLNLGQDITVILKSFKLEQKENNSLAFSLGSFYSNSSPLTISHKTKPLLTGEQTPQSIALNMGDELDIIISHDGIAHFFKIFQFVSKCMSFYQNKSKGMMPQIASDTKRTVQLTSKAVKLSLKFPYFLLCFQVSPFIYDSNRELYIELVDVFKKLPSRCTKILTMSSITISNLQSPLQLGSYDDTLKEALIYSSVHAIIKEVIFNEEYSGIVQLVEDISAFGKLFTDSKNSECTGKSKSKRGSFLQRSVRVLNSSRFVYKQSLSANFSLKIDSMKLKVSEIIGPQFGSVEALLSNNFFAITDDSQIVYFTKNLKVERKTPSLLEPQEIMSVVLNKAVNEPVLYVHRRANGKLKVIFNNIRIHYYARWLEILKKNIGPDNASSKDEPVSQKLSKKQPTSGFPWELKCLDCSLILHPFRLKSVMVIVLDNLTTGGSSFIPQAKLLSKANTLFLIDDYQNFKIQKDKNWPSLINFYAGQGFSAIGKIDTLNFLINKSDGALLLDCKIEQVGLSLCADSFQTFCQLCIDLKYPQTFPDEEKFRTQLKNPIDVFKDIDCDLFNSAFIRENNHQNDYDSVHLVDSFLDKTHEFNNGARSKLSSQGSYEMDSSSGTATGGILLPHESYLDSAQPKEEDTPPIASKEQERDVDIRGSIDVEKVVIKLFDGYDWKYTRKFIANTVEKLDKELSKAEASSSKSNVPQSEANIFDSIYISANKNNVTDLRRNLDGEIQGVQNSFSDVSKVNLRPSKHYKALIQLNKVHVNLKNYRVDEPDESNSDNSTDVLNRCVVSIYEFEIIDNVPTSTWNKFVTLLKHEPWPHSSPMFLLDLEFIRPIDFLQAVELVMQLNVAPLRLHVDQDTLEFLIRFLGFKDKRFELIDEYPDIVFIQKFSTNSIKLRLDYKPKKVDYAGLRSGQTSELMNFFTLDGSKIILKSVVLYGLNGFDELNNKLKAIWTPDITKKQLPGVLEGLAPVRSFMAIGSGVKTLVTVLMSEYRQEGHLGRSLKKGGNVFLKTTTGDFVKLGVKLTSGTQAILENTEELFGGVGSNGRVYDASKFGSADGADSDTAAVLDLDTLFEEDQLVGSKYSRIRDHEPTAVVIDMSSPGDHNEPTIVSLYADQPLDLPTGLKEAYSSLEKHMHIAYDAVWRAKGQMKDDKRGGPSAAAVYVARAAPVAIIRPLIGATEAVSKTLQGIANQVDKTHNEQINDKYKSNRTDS", "experiment": "liposome flotation assay"}, "[2]": {"target": "Atg2 (untagged, overproduced, of the purified Atg2–Atg18 complexes) (S. cerevisiae, UniProt P53855 1-1592)", "sequence (P53855 whole entry, one chain of several)": "as above", "experiment": "liposome flotation assay"}}, "data": [{"molecule": "Atg18^FAAG-TAP (overproduced, mutant unable to bind PtdIns3P) (from UniProt P43601 1-500) (natural protein)", "values": [{"measurement": "percent of Atg18^FAAG on liposomes with Atg9", "setting": "[1]", "value": "< 58", "unit": "%"}]}, {"molecule": "B1", "values": [{"measurement": "stoichiometry N", "setting": "[2]", "value": "~1", "unit": "ratio"}]}]}
